Data taken from patent US20250295772A1 (ABATA THERAPEUTICS, published 2025).

B1: TCR-Q (TCR, V domains shown)
V domain 1: KDQVFQPSTVASSEGAVVEIFCNHSVSNAYNFFWYLHFPGCAPRLLVKGSKPSQQGRYNMTYERFSSSLLILQVREADAAVYYCAVGDTGGFKTIFGAGTRLFVKA
V domain 2: DSGVTQTPKHLITATGQRVTLRCSPRSGDLSVYWYQQSLDQGLQFLIHYYNGEERAKGNILERFSAQQFPDLHSELNLSSLELGDSALYFCASSEIAGFSTDTQYFGPGTRLTVLE
B2: TCR-S DS (TCR, V domains shown)
V domain 1: QKEVEQDPGPLSVPEGAIVSLNCTYSNSAFQYFMWYRQYSRKGPELLMYTYSSGNKEDGRFTAQVDKSSKYISLFIRDSQPSDSATYLCAMSEYSGYALNFGKGTSLLVTP
V domain 2: GITQSPKYLFRKEGQNVTLSCEQNLNHDAMYWYRQDPGQGLRLIYYSQIVNDFQKGDIAEGYSVSREKKESFPLTVTSAQKNPTAFYLCASSNRDEQYFGPGTRLTVTE

Target: T1, preproinsulin 73-90 peptide complexed with HLA-DRB1*04:01 (human, UniProt P01903 26-254; P01911 30-266)
T1 MHC II alpha: not shown
T1 MHC II beta: not shown
T1 peptide: GAGSLQPLALEGSLQKRG
Assay: cell-based or functional assay

Row | Binder | EC50 (nM) of CD69 upregulation, conventional CD4+ T cells + BLS-DRB1*04:01 cells, peptide titrated
1 | B1 | 409 nM
2 | B2 | 10000 nM
